# Measurements published in the Human Domainome abundance scans (Beltran et al. 2025).
# ± gives the uncertainty stated by the source.
# B1: GA-binding protein alpha chain, residues 172 to 250; numbered along this chain, Q06546 (parent)
# chain: GYRKEQERLGIPYDPIQWSTDQVLHWVVWVMKEFSMTDIDLTTLNISGRELCSLNQEDFFQRVPRGEILWSHLELLRKY
# Variants of: B1
# Assay: abundance fitness (aPCA) (normalised: wild type 0, dead -1); higher = more abundant; growth selection in yeast, the domain comes from the species named
# Conditions: Homo sapiens
row,Variant,abundance fitness
1,I68S,-0.076 ± 0.041
2,I68T,-0.065 ± 0.051
3,I68V,-0.021 ± 0.038
4,I68W,-0.115 ± 0.045
5,I68Y,-0.037 ± 0.071
6,L69A,-0.311 ± 0.032
7,L69C,-0.57 ± 0.069
8,L69D,-0.758 ± 0.38
9,L69E,-0.934 ± 0.2
10,L69F,-0.027 ± 0.061
11,L69G,-1.04 ± 0.089
12,L69H,-0.259 ± 0.14
13,L69I,-0.499 ± 0.19
14,L69K,-1 ± 0.33
15,L69M,-0.124 ± 0.051
16,L69N,-0.974 ± 0.46
17,L69P,-1.06 ± 0.16
18,L69R,-0.977 ± 0.075
19,L69S,-0.882 ± 0.089
20,L69V,-0.393 ± 0.04
21,L69W,-0.432 ± 0.044
22,L69Y,-0.265 ± 0.08
23,W70A,-0.748 ± 0.071
24,W70C,-0.793 ± 0.12

row,Variant,abundance fitness
1,W70E,-0.801 ± 0.12
2,W70F,-0.181 ± 0.083
3,W70G,-0.843 ± 0.062
4,W70H,-0.494 ± 0.13
5,W70K,-0.872 ± 0.25
6,W70M,-0.557 ± 0.095
7,W70N,-0.766 ± 0.22
8,W70Q,-0.875 ± 0.2
9,W70R,-0.526 ± 0.036
10,W70S,-0.913 ± 0.087
11,W70T,-1.05 ± 0.16
12,W70V,-0.92 ± 0.1
13,W70Y,-0.058 ± 0.082
14,S71A,-0.046 ± 0.039
15,S71C,-0.167 ± 0.067
16,S71D,0.027 ± 0.074
17,S71E,-0.021 ± 0.11
18,S71F,-0.102 ± 0.07
19,S71G,-0.01 ± 0.034
20,S71H,-0.029 ± 0.079
21,S71I,-0.157 ± 0.059
22,S71K,-0.102 ± 0.084
23,S71L,-0.156 ± 0.04
24,S71M,-0.162 ± 0.076

row,Variant,abundance fitness
1,S71N,-0.115 ± 0.06
2,S71P,-0.102 ± 0.044
3,S71Q,0.01 ± 0.053
4,S71R,-0.034 ± 0.036
5,S71T,0.021 ± 0.052
6,S71V,-0.131 ± 0.046
7,S71W,-0.042 ± 0.032
8,S71Y,-0.027 ± 0.18
9,H72A,-0.244 ± 0.043
10,H72D,-0.214 ± 0.091
11,H72E,0.009 ± 0.081
12,H72F,-0.888 ± 0.34
13,H72I,-0.338 ± 0.16
14,H72K,-0.282 ± 0.12
15,H72L,-0.751 ± 0.056
16,H72M,-0.322 ± 0.055
17,H72P,-1 ± 0.12
18,H72Q,0.019 ± 0.061
19,H72R,-0.295 ± 0.032
20,H72S,-0.143 ± 0.035
21,H72T,-0.38 ± 0.046
22,H72V,-0.554 ± 0.051
23,H72W,-1.02 ± 0.16
24,H72Y,-0.46 ± 0.15

row,Variant,abundance fitness
1,L73A,-0.736 ± 0.071
2,L73C,-0.979 ± 0.2
3,L73E,-0.758 ± 0.19
4,L73G,-0.937 ± 0.077
5,L73I,-0.542 ± 0.088
6,L73K,-0.422 ± 0.18
7,L73M,-0.347 ± 0.059
8,L73N,-0.979 ± 0.23
9,L73P,-0.658 ± 0.063
10,L73Q,-0.713 ± 0.22
11,L73T,-0.97 ± 0.15
12,L73V,-0.376 ± 0.052
13,L73W,-0.173 ± 0.055
14,L73Y,-0.962 ± 0.47
15,E74A,-0.061 ± 0.044
16,E74C,-0.138 ± 0.1
17,E74D,-0.023 ± 0.058
18,E74F,-0.322 ± 0.1
19,E74G,-0.066 ± 0.041
20,E74I,-0.302 ± 0.071
21,E74K,-0.106 ± 0.17
22,E74L,-0.109 ± 0.04
23,E74N,-0.226 ± 0.13
24,E74P,-0.904 ± 0.13

row,Variant,abundance fitness
1,E74Q,-0.075 ± 0.11
2,E74S,-0.051 ± 0.04
3,E74T,-0.161 ± 0.094
4,E74V,-0.213 ± 0.041
5,E74W,-0.336 ± 0.085
6,E74Y,-0.287 ± 0.1
7,L75A,-0.02 ± 0.048
8,L75D,-0.022 ± 0.093
9,L75E,0.024 ± 0.058
10,L75F,-0.136 ± 0.098
11,L75G,-0.132 ± 0.047
12,L75H,0.031 ± 0.068
13,L75I,0.107 ± 0.12
14,L75K,-0.122 ± 0.076
15,L75M,-0.042 ± 0.071
16,L75Q,-0.08 ± 0.053
17,L75R,-0.012 ± 0.035
18,L75S,0.046 ± 0.039
19,L75T,0.024 ± 0.074
20,L75V,-0.193 ± 0.027
21,L75W,-0.104 ± 0.05
22,L75Y,0.01 ± 0.16
23,L76A,-0.534 ± 0.048
24,L76C,-0.119 ± 0.05

row,Variant,abundance fitness
1,L76E,-0.521 ± 0.091
2,L76F,-0.354 ± 0.061
3,L76G,-0.95 ± 0.08
4,L76H,-0.317 ± 0.19
5,L76I,-0.236 ± 0.096
6,L76K,-0.876 ± 0.28
7,L76M,-0.093 ± 0.11
8,L76P,-0.727 ± 0.083
9,L76Q,-0.416 ± 0.094
10,L76R,-0.677 ± 0.07
11,L76S,-0.676 ± 0.06
12,L76T,-0.29 ± 0.059
13,L76V,-0.182 ± 0.038
14,L76W,-0.621 ± 0.065
15,R77A,-0.547 ± 0.056
16,R77C,-0.255 ± 0.071
17,R77D,-0.382 ± 0.12
18,R77E,-0.36 ± 0.11
19,R77F,-0.859 ± 0.2
20,R77G,-0.515 ± 0.056
21,R77H,-0.07 ± 0.12
22,R77I,-0.23 ± 0.084
23,R77K,0.016 ± 0.081
24,R77L,-0.165 ± 0.047

row,Variant,abundance fitness
1,R77M,-0.348 ± 0.15
2,R77N,-0.119 ± 0.13
3,R77Q,-0.299 ± 0.091
4,R77S,-0.311 ± 0.043
5,R77T,-0.246 ± 0.048
6,R77V,-0.343 ± 0.055
7,R77W,-0.873 ± 0.28
8,K78A,0 ± 0.034
9,K78D,0.023 ± 0.1
10,K78E,-0.05 ± 0.067
11,K78F,-0.086 ± 0.082
12,K78G,0.033 ± 0.024
13,K78H,-0.015 ± 0.11
14,K78I,-0.009 ± 0.16
15,K78L,-0.135 ± 0.034
16,K78M,-0.071 ± 0.072
17,K78N,0.096 ± 0.085
18,K78P,-0.195 ± 0.066
19,K78Q,-0.059 ± 0.087
20,K78R,0.003 ± 0.033
21,K78S,-0.045 ± 0.046
22,K78V,-0.078 ± 0.03
23,K78W,-0.23 ± 0.047
